Experimental data published in patent US20250171555A1 (VISTERRA, published 2025).

Key:
C5aR2 VLP [1] = molecular target: T1, C5aR2 VLP (UniProt Q9P296 1-337); assay: ELISA, C5aR2 VLP immobilized at 30 µg/mL, antibody titrated
C5aR2 VLP [2] = molecular target: T1, C5aR2 VLP; assay: ELISA, C5aR2 VLP immobilized, as in Example 1

T1 sequence (Q9P296 whole entry): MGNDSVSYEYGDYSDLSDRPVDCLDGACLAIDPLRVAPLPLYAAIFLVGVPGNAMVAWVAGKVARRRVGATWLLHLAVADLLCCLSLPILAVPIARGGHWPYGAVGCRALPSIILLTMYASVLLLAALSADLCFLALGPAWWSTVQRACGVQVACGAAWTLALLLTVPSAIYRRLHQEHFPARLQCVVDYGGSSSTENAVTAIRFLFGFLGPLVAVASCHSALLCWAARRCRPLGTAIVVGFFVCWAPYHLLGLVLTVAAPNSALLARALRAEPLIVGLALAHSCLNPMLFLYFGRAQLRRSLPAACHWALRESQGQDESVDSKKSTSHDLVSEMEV

| Binder | binding result (C5aR2 VLP [1]) | binding result (C5aR2 VLP [2]) |
| --- | --- | --- |
| c2139 (antibody, human IgG4 S228P, kappa, also called humanized Site II antibody; monospecific C5aR1 antibody) heavy: not shown light: DVQMTQSPSSLSASVGDRVTITCRASQSIVHSNGNTYLHWYQQKPGKAPKFLIYKVSNRFSGVPSRFSGSGSGTDFTLTISSLQPEDFATYYCAQYTLVPLTFGQGTKLEIKRTVAAPSVFIFPPSDEQLKSGTASVVCLLNNFYPREAKVQWKVDNALQSGNSQESVTEQDSKDSTYSLSSTLTLSKADYEKHKVYACEVTHQGLSSPVTKSFNRGEC | no binding |  |
| c2139-Fcmod (antibody, human IgG4 S228P, kappa, also called c2139-Fmod; monospecific antibody with modified Fc domain) heavy: not shown light: DVQMTQSPSSLSASVGDRVTITCRASQSIVHSNGNTYLHWYQQKPGKAPKFLIYKVSNRFSGVPSRFSGSGSGTDFTLTISSLQPEDFATYYCAQYTLVPLTFGQGTKLEIKRTVAAPSVFIFPPSDEQLKSGTASVVCLLNNFYPREAKVQWKVDNALQSGNSQESVTEQDSKDSTYSLSSTLTLSKADYEKHKVYACEVTHQGLSSPVTKSFNRGEC |  | no binding |
| c2137-e1711 (bispecific antibody, human IgG4 S228P, kappa, Tetravalent Fab-Fc-linker-scFv; also called humanized biparatopic antibody; biparatopic C5aR1 antibody) heavy: not shown light: DVQMTQSPSSLSASVGDRVTITCRASQSIVHSNGNTYLHWYQQKPGKAPKFLIYKVSNRFSGVPSRFSGSGSGTDFTLTISSLQPEDFATYYCAQSTLVPLTFGQGTKLEIKRTVAAPSVFIFPPSDEQLKSGTASVVCLLNNFYPREAKVQWKVDNALQSGNSQESVTEQDSKDSTYSLSSTLTLSKADYEKHKVYACEVTHQGLSSPVTKSFNRGEC | no binding |  |
| c2137-e1711-Fcmod (bispecific antibody, human IgG4 S228P, kappa, Fab-Fc-linker-scFv; also called biparatopic antibody with modified Fc domain) heavy: not shown light: DVQMTQSPSSLSASVGDRVTITCRASQSIVHSNGNTYLHWYQQKPGKAPKFLIYKVSNRFSGVPSRFSGSGSGTDFTLTISSLQPEDFATYYCAQSTLVPLTFGQGTKLEIKRTVAAPSVFIFPPSDEQLKSGTASVVCLLNNFYPREAKVQWKVDNALQSGNSQESVTEQDSKDSTYSLSSTLTLSKADYEKHKVYACEVTHQGLSSPVTKSFNRGEC |  | no binding |
